Results: FireProtDB (doi:10.1021/bi0525223)

Details: Lithobates pipiens, pH 5.5, sodium acetate 100 mM, reversible: Yes, whole UniProt chain shown

B1: Protein P-30 wild type, P22069 (protein)
chain: QDWLTFQKKHITNTRDVDCDNIMSTNLFHCKDKNTFIYSRPEPVKAICKGIIASKNVLTTSEFYLSDCNVTSRPCKYKLKKSTNKFCVTCENQAPVHFVGVGSC
For B1, which “denaturant midpoint (higher = more stable)” value (20 °C, GdnHCl, Fluorescence) is on record?
The value was 4.4 M.

What about the Tm (Thermal, DSC) of the same protein?
Its Tm is 88.5 °C.
